This assay deals with T1, human serum albumin (HSA) (human, UniProt P02768 25-609).
T1 construct: also called human albumin; Albiomin 20%
Briefly: FVIII antigen ELISA on plasma samples; albumin binding inferred from reduced detection.

These results are taken from patent US20230190881A1 (BIOTEST, published 2023).

B1: AD2CD2-19M_SC (other)
chain: ATRRYYLGAVELSWDYMQSDLGELPVDARFPPRVPKSFPFNTSVVYKKTLFVEFTDHLFSIAKPRPPWMGLLGPTIQAEVYDTVVITLKNMATHPVSLHAVGVSYWKASEGAEYDDQTSQREKEDDKVFPGGSHTYVWQVSKENGPMASDPQCLTYSYLSHVDLAKDLNSGLIGALLVCREGSLAKEKTQTLHKFILLFAVFDEGKSWHSETKDSLMQDRDAASARAWPKMHTVNGYVNRSLPGLTGCHRKSVYWHVIGMGTTPEVHSIFLEGHTFLVRDHRQASLEISPITFLTAQTLLMDLGQFLLFCHISSHQHDGMEAYVKVDSCPEEPQLRMKNNEEAEDYDDDLTDSEMDVVRFDDDNSPSFIQIRSVAKKHPKTWVHYIAAEEEDWDYAPLVLAPDDRSHKSQYLNNGPQRIGRKYKKVRFMAYTDETFKTREAIQHESGILGPLLYGEVGDTLLIIFKNQASRPYNIYPHGITDVRPLYERRLPKGVKHLKDFPILPGEIFKYKWTVTVEDGPTKSDPRCLTRYYSSHVNMERDLASGLIGPLLICYKESVDQRGNQIMSDKRNVILFSVFDENRSWYLTENIQRFLPEPAGVQLEDPEFQASNIMHSINGYVFDSLQLSVCLHEVAYWYILSIGAQTDFLSVFFSGYTFKHKMVYEDTLTLFPFSGETVFMSMENPGNWILGCHNSDFRNRGMTALLKVSSCDKNTGDYYEDSYEDISASLLSKNNAIEPRSFSQNPPVLSKNNAIEPRSFSQNSRHPSLAEAKEAANAELDSYGVSDFYKRLIDKAKTVEGVEALKDAILAALPGSGGSGGSGGSGSGSKNNAIEPRSFSQNSRHPSGSGGSGGSGGSGSLAEAKEAANAELDSYGVSDFYKRLIDKAKTVEGVEALKDAILAALPSKNNAIEPRSFSQNSRHPSQSDQEEIDYDDTISVEMKKEDFDIYDEDENQSPRSFQKKTRHYFIAAVERLWDYGMSSSPHVLRNRAQSGSVPQFKKVVFQEFTDGSFTQPLYRGELNEHLGLLGPYIRAEVEDNIMVTFRNQASRPYSFYSSLISYEEDQRQGAEPRKNFVKPNETKTYFWEVQHHMAPTKDEFDCKAWAYFSDVDLEKDVHSGLIGPLLVCHTNTLNPAHGRQVTVQEFALFFTIFDETKSWYFTENMERNCRAPCNIQMEDPTFKENYRFHAINGYIMDTLPGLVMAQDQRIRWYLLSMGSNENIHSIHFSGHVFTVRKKEEYKMALYNLYPGVFETVEMLPSKAGIWRVECLIGEHLHAGMSTLFLVYSDKCQTPLGMASGHIRDFQITASGQYGQWAPKLARLHYSGGINAWSTKEPFSWIKVDLLAPMIIHGIKTQGARQKFSSLYISQFIIMYSLDGKKWQTYRGNSTGTLMVFFGNVDSSGIKHNIFNPPIIARYIRLHPTHYSIRSTLRMELMGCDLNSCSMPLGMESKAISDAQITASSYFTNMFATWSPSKARLHLQGRSNAWRPQVNNPKEWLQVDFQKTMKVTGVTTQGVKSLLTSMYVKEFLISSSQDGHQWTLFFQNGKVKVFQGNQDSFTPVVNTLDPPLLTRYLRIHPQSWAHQIALRMEVLGCEAQDLYSKNNAIEPRSFSQNSRHPSLAEAKEAANAELDSYGVSDFYKRLIDKAKTVEGVEALKDAILAALPGSGGSGGSGGSGSGSKNNAIEPRSFSQNSRHPSGSGGSGGSGGSGSLAEAKEAANAELDSYGVSDFYKRLIDKAKTVEGVEALKDAILAALP
notes: also called de-immunized FVIII-ABD fusion molecule
B1: the binding result was “binds”.

B2: AD2CD2_SC (other)
chain: ATRRYYLGAVELSWDYMQSDLGELPVDARFPPRVPKSFPFNTSVVYKKTLFVEFTDHLFNIAKPRPPWMGLLGPTIQAEVYDTVVITLKNMASHPVSLHAVGVSYWKASEGAEYDDQTSQREKEDDKVFPGGSHTYVWQVLKENGPMASDPLCLTYSYLSHVDLVKDLNSGLIGALLVCREGSLAKEKTQTLHKFILLFAVFDEGKSWHSETKNSLMQDRDAASARAWPKMHTVNGYVNRSLPGLIGCHRKSVYWHVIGMGTTPEVHSIFLEGHTFLVRNHRQASLEISPITFLTAQTLLMDLGQFLLFCHISSHQHDGMEAYVKVDSCPEEPQLRMKNNEEAEDYDDDLTDSEMDVVRFDDDNSPSFIQIRSVAKKHPKTWVHYIAAEEEDWDYAPLVLAPDDRSYKSQYLNNGPQRIGRKYKKVRFMAYTDETFKTREAIQHESGILGPLLYGEVGDTLLIIFKNQASRPYNIYPHGITDVRPLYSRRLPKGVKHLKDFPILPGEIFKYKWTVTVEDGPTKSDPRCLTRYYSSFVNMERDLASGLIGPLLICYKESVDQRGNQIMSDKRNVILFSVFDENRSWYLTENIQRFLPNPAGVQLEDPEFQASNIMHSINGYVFDSLQLSVCLHEVAYWYILSIGAQTDFLSVFFSGYTFKHKMVYEDTLTLFPFSGETVFMSMENPGLWILGCHNSDFRNRGMTALLKVSSCDKNTGDYYEDSYEDISAYLLSKNNAIEPRSFSQNPPVLSKNNAIEPRSFSQNSRHPSLAEAKEAANAELDSYGVSDFYKRLIDKAKTVEGVEALKDAILAALPGSGGSGGSGGSGSGSKNNAIEPRSFSQNSRHPSGSGGSGGSGGSGSLAEAKEAANAELDSYGVSDFYKRLIDKAKTVEGVEALKDAILAALPSKNNAIEPRSFSQNSRHPSQSDQEEIDYDDTISVEMKKEDFDIYDEDENQSPRSFQKKTRHYFIAAVERLWDYGMSSSPHVLRNRAQSGSVPQFKKVVFQEFTDGSFTQPLYRGELNEHLGLLGPYIRAEVEDNIMVTFRNQASRPYSFYSSLISYEEDQRQGAEPRKNFVKPNETKTYFWKVQHHMAPTKDEFDCKAWAYFSDVDLEKDVHSGLIGPLLVCHTNTLNPAHGRQVTVQEFALFFTIFDETKSWYFTENMERNCRAPCNIQMEDPTFKENYRFHAINGYIMDTLPGLVMAQDQRIRWYLLSMGSNENIHSIHFSGHVFTVRKKEEYKMALYNLYPGVFETVEMLPSKAGIWRVECLIGEHLHAGMSTLFLVYSNKCQTPLGMASGHIRDFQITASGQYGQWAPKLARLHYSGSINAWSTKEPFSWIKVDLLAPMIIHGIKTQGARQKFSSLYISQFIIMYSLDGKKWQTYRGNSTGTLMVFFGNVDSSGIKHNIFNPPIIARYIRLHPTHYSIRSTLRMELMGCDLNSCSMPLGMESKAISDAQITASSYFTNMFATWSPSKARLHLQGRSNAWRPQVNNPKEWLQVDFQKTMKVTGVTTQGVKSLLTSMYVKEFLISSSQDGHQWTLFFQNGKVKVFQGNQDSFTPVVNSLDPPLLTRYLRIHPQSWVHQIALRMEVLGCEAQDLYSKNNAIEPRSFSQNSRHPSLAEAKEAANAELDSYGVSDFYKRLIDKAKTVEGVEALKDAILAALPGSGGSGGSGGSGSGSKNNAIEPRSFSQNSRHPSGSGGSGGSGGSGSLAEAKEAANAELDSYGVSDFYKRLIDKAKTVEGVEALKDAILAALP
Regarding B2, the binding result is recorded as “binds”.
